Biological target: RARα (UniProt P10276)
Assay: Flag IP of RARα, GFP-p65 blot
Conditions: reference: GFP-p65 wild type; sites S276

## RelA/p65 (from UniProt Q04206) GFP-p65-S276A
  binding against the reference: lost

— paper PMC9870083
